Experimental findings from FireProtDB (doi:10.1021/bi00212a026) are described below.

Sequences and labels used below:
B1: Ribonuclease, P00648 (parent)
chain: MMKMEGIALKKRLSWISVCLLVLVSAAGMLFSTAAKTETSSHKAHTEAQVINTFDGVADYLQTYHKLPDNYITKSEAQALGWVASKGNLADVAPGKSIGGDIFSNREGKLPGKSGRTWREADINYTSGFRNSDRILYSSDWLIYKTTDHYQTFTKIR

In this data set the parent is B1. Conditions: Bacillus amyloliquefaciens; pH 6.3; 25 °C; Urea; Fluorescence; MES 50 mM; NaCl 0.15 M; reversible: yes; structure 1BNI; whole UniProt chain shown.

For MMKMEGIALKKRLSWISVCLLVLVSAAGMLFSTAAKTETSSHKAHTEAQVANTFDGVADYLQTYHKLPDNYITKSEAQALGWVASKGNLADVAPGKSVGGDIFSNREGKLPGKSGRTWREADINYTSGFRNSDRILYSSDWLIYKTTDHYQTFTKIR [I51A I98V], the “ddG of mutation (higher = less stable)” value stood at 11 kJ/mol, the denaturant m value turned out to be 2.11 kcal/mol/M, the “denaturant midpoint (higher = more stable)” value (shortened to “denaturant midpoint”) worked out at 2.92 M and the unfolding free energy amounted to 25.8 kJ/mol.
For MMKMEGIALKKRLSWISVCLLVLVSAAGMLFSTAAKTETSSHKAHTEAQVANTFDGVADYLQTYHKLPDNYITKSEAQALGWVASKGNLADVAPGKSIGGDIFSNREGKLPGKSGRTWREADINFTSGFRNSDRILYSSDWLIYKTTDHYQTFTKIR [I51A Y125F], the “ddG of mutation (higher = less stable)” value is 10.6 kJ/mol, the denaturant m value was 1.95 kcal/mol/M, the “denaturant midpoint” value was 3.21 M and the unfolding free energy came out at 26.2 kJ/mol.
With MMKMEGIALKKRLSWISVCLLVLVSAAGMLFSTAAKTETSSHKAHTEAQVANTFDGVADYLQTYHKLPDNYITKSEAQALGWVASKGNLADVAPGKSIGGDIFSNREGKLPGKSGRTWREADVNYTSGFRNSDRILYSSDWLIYKTTDHYQTFTKIR [I51A I123V], the “ddG of mutation (higher = less stable)” value is 7.78 kJ/mol, the denaturant m value was 1.92 kcal/mol/M, the “denaturant midpoint” value amounted to 3.61 M and the unfolding free energy is 29 kJ/mol.
The like results for MMKMEGIALKKRLSWISVCLLVLVSAAGMLFSTAAKTETSSHKAHTEAQVINTFDGVADYLQTYHKLPDNYITKSEAQALGWVASKGNLADVAPGKSIGGDIFSNREGKLPGKSGRTWREADTNYTSGFRNSDRILYSSDWLIYKTTDHYQTFTKIR [I123T] were, in that order, 11.3 kJ/mol, 1.87 kcal/mol/M, 3.26 M and 25.5 kJ/mol.
